1 protein from ChEMBL document CHEMBL1123043, “Effects of charge, volume, and surface on binding of inhibitor and substrate moieties to acetylcholinesterase” (J Med Chem, 1985) can be followed below.

Substrate in series [1]: CCCCO
Description: (§1) Compound was evaluated for reversible inhibition of hydrolysis acetylcholine by acetylcholinesterase and represented as Km(app) apparent binding constant
Substrate in series [2]: CC(=O)CCC[N+](C)(C)[O-]
Description: as §1
Substrate in series [3]: C[S+](C)CCO
Description: as §1
Substrate in series [4]: C[N+](C)(C)CCO
Description: as §1
Substrate in series [5]: CSCCO
Description: as §1
Substrate in series [6]: CN(C)C
Description: as §1
Substrate in series [7]: CC(C)(C)CCO
Description: as §1
Substrate in series [8]: CC(=O)OCCS(C)(=O)=O
Description: as §1
Substrate in series [9]: C[Si](C)(C)CCO
Description: as §1
Substrate in series [10]: CS(=O)(=O)CCO
Description: as §1
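Also: apparent binding constant Km(app) for reversible inhibition of acetylcholine hydrolysis catalysed by acetylcholinesterase.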

B1: Choline O-acetyltransferase (Rattus norvegicus), P32738 (protein)
chain: MPILEKAPQKMPVKASSWEELDLPKLPVPPLQQTLATYLQCMQHLVPEEQFRKSQAIVKRFGAPGGLGETLQEKLLERQEKTANWVSEYWLNDMYLNNRLALPVNSSPAVIFARQHFQDTNDQLRFAACLISGVLSYKTLLDSHSLPTDWAKGQLSGQPLCMKQYYRLFSSYRLPGHTQDTLVAQKSSIMPEPEHVIVACCNQFFVLDVVINFRRLSEGDLFTQLRKIVKMASNEDERLPPIGLLTSDGRSEWAKARTVLLKDSTNRDSLDMIERCICLVCLDGPGTGELSDTHRALQLLHGGGCSLNGANRWYDKSLQFVVGRDGTCGVVCEHSPFDGIVLVQCTEHLLKHMMTSNKKLVRADSVSELPAPRRLRLKCSPETQGHLASSAEKLQRIVKNLDFIVYKFDNYGKTFIKKQKYSPDGFIQVALQLAYYRLYQRLVPTYESASIRRFQEGRVDNIRSATPEALAFVQAMTDHKAAMPASEKLQLLQTAMQAHKQYTVMAITGMAIDNHLLALRELARDLCKEPPEMFMDETYLMSNRFVLSTSQVPTTMEMFCCYGPVVPNGNGACYNPQPEAITFCISSFHSCKETSSVEFAEAVGASLVDMRDLCSSRQPADSKPPAPKEKARGPSQAKQS
Usually Km stands for the concentration of substrate that gives half-maximal velocity. Turning to B1, the Michaelis-Menten constant (Km) in series [1] stood at 13 mM; in series [2], 18 mM; in [3], 0.33 mM; in series [4] it was 0.33 mM; in series [5], 15 mM; in series [6], 18 mM. The Km in [7] is 5.3 mM; in [8], 6.2 mM; in [9], 3.5 mM; in [10], 6.2 mM.
